The values that follow come from the supplement of paper PMC9112550, “Optimization of the antimicrobial peptide Bac7 by deep mutational scanning” (BMC Biology, 2022).
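Further: peptides expressed intracellularly from a pBAD plasmid library in pooled LB shake-flask culture, induced with 0.3% L-arabinose, DNA abundance read by NGS, three biological replicates, DESeq2 with apeglm shrinkage.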

The subject of the data set is Escherichia coli TOP10. The data set is described as follows: shrunken log2 fold change of peptide-encoding DNA abundance (4.5 h post-induction vs induction); higher = less antimicrobial activity (less host growth inhibition). The settings on record: time post-induction: 4.5 h; library: site-saturation at positions 5, 18, 19, 20.
On to RRIRTRPPRLPRPRPRPGSWPRP, for which the “shrunken log2 fold change” value amounted to 0.844.

On to RRIRCRPPRLPRPRPRPTDHPRP, for which the “shrunken log2 fold change” value is -0.257.

RRIRWRPPRLPRPRPRPFYSPRP: the “shrunken log2 fold change” value is -0.681.

Regarding RRIRNRPPRLPRPRPRPLDEPRP, the “shrunken log2 fold change” value came out at 0.126.

With RRIRWRPPRLPRPRPRPRKDPRP, the “shrunken log2 fold change” value is -0.0246.

As to RRIRKRPPRLPRPRPRPKLVPRP, the “shrunken log2 fold change” value amounted to 0.0448.

For the sequence RRIRPRPPRLPRPRPRPKPRPRP, the “shrunken log2 fold change” value came to 0.502.

Turning to RRIRQRPPRLPRPRPRPYISPRP, the “shrunken log2 fold change” value was -0.716.

Consider RRIRYRPPRLPRPRPRPELQPRP, for which the “shrunken log2 fold change” value is 0.0344.

Take RRIRDRPPRLPRPRPRPQIVPRP: the “shrunken log2 fold change” value is -0.00245.

As to RRIRNRPPRLPRPRPRPGHYPRP, the “shrunken log2 fold change” value is -0.171.

Take RRIRWRPPRLPRPRPRPYPRPRP: the “shrunken log2 fold change” value was -0.632.

In the case of RRIRWRPPRLPRPRPRPFCIPRP, the “shrunken log2 fold change” value is -0.293.

Take RRIRRRPPRLPRPRPRPQLVPRP: the “shrunken log2 fold change” value came out at 0.0448.

As to RRIRFRPPRLPRPRPRPVCRPRP, the “shrunken log2 fold change” value was -0.0676.

Consider RRIRTRPPRLPRPRPRPQIWPRP, for which the “shrunken log2 fold change” value amounted to 0.0741.

Take RRIRCRPPRLPRPRPRPVEPPRP: the “shrunken log2 fold change” value is -0.0281.

For RRIRLRPPRLPRPRPRPFKPPRP, the “shrunken log2 fold change” value stood at 0.2.

On to RRIRMRPPRLPRPRPRPKPYPRP, for which the “shrunken log2 fold change” value was determined as 0.314.

As to RRIRKRPPRLPRPRPRPHIDPRP, the “shrunken log2 fold change” value turned out to be 0.0232.

RRIRYRPPRLPRPRPRPQCMPRP: the “shrunken log2 fold change” value is -0.931.

Regarding RRIRYRPPRLPRPRPRPVGLPRP, the “shrunken log2 fold change” value was 0.158.

Take RRIRMRPPRLPRPRPRPVISPRP: the “shrunken log2 fold change” value was -0.28.

Take RRIRYRPPRLPRPRPRPIYVPRP: the “shrunken log2 fold change” value is -1.88.

Regarding RRIRKRPPRLPRPRPRPQQIPRP, the “shrunken log2 fold change” value is -0.248.

Take RRIRLRPPRLPRPRPRPISRPRP: the “shrunken log2 fold change” value was determined as 0.0488.

Regarding RRIRNRPPRLPRPRPRPRQFPRP, the “shrunken log2 fold change” value came to 0.0733.

For the sequence RRIRFRPPRLPRPRPRPGHEPRP, the “shrunken log2 fold change” value is -0.196.

Consider RRIRTRPPRLPRPRPRPYKKPRP, for which the “shrunken log2 fold change” value was -0.317.

As for RRIRHRPPRLPRPRPRPQIPPRP, the “shrunken log2 fold change” value was 0.0645.

With RRIRIRPPRLPRPRPRPEIPPRP, the “shrunken log2 fold change” value was -0.0249.

With RRIRRRPPRLPRPRPRPAFYPRP, the “shrunken log2 fold change” value came to 0.654.

In the case of RRIRLRPPRLPRPRPRPDPQPRP, the “shrunken log2 fold change” value is -0.00554.

On to RRIRMRPPRLPRPRPRPQQAPRP, for which the “shrunken log2 fold change” value amounted to 0.0303.

As for RRIRDRPPRLPRPRPRPWPGPRP, the “shrunken log2 fold change” value amounted to 0.104.

RRIRFRPPRLPRPRPRPVFAPRP: the “shrunken log2 fold change” value was 0.158.

Turning to RRIRERPPRLPRPRPRPYPTPRP, the “shrunken log2 fold change” value was -0.397.

For the sequence RRIRKRPPRLPRPRPRPKYQPRP, the “shrunken log2 fold change” value is 0.0989.

RRIRIRPPRLPRPRPRPIKAPRP: the “shrunken log2 fold change” value is -0.38.

Take RRIRVRPPRLPRPRPRPMWYPRP: the “shrunken log2 fold change” value was -0.62.

With RRIRARPPRLPRPRPRPMFPPRP, the “shrunken log2 fold change” value was -0.147.

Consider RRIRGRPPRLPRPRPRPKEDPRP, for which the “shrunken log2 fold change” value worked out at 0.796.

Turning to RRIRGRPPRLPRPRPRPDNRPRP, the “shrunken log2 fold change” value is -0.0893.

As to RRIRCRPPRLPRPRPRPSYIPRP, the “shrunken log2 fold change” value is -0.675.

RRIRHRPPRLPRPRPRPPQRPRP: the “shrunken log2 fold change” value is 0.248.

As to RRIRTRPPRLPRPRPRPVQKPRP, the “shrunken log2 fold change” value amounted to 0.296.

As for RRIRPRPPRLPRPRPRPIRDPRP, the “shrunken log2 fold change” value is -0.015.

Take RRIRKRPPRLPRPRPRPHLDPRP: the “shrunken log2 fold change” value came to 0.00976.

For RRIRWRPPRLPRPRPRPWDGPRP, the “shrunken log2 fold change” value came to 0.00386.

Regarding RRIRSRPPRLPRPRPRPCEEPRP, the “shrunken log2 fold change” value was 0.00181.

In the case of RRIRRRPPRLPRPRPRPPMLPRP, the “shrunken log2 fold change” value came out at 0.317.

In the case of RRIRRRPPRLPRPRPRPPTPPRP, the “shrunken log2 fold change” value is 0.769.

With RRIRDRPPRLPRPRPRPDLIPRP, the “shrunken log2 fold change” value is 0.126.

For the sequence RRIRGRPPRLPRPRPRPFQPPRP, the “shrunken log2 fold change” value worked out at 0.0927.

For RRIRMRPPRLPRPRPRPFYWPRP, the “shrunken log2 fold change” value is 0.086.

For RRIRTRPPRLPRPRPRPQAKPRP, the “shrunken log2 fold change” value is -0.147.

In the case of RRIRDRPPRLPRPRPRPCICPRP, the “shrunken log2 fold change” value worked out at 0.159.

Consider RRIRLRPPRLPRPRPRPRCPPRP, for which the “shrunken log2 fold change” value was determined as 0.188.

Consider RRIRIRPPRLPRPRPRPSCNPRP, for which the “shrunken log2 fold change” value was -0.576.

For RRIRSRPPRLPRPRPRPHHYPRP, the “shrunken log2 fold change” value is -0.998.

On to RRIRFRPPRLPRPRPRPYWVPRP, for which the “shrunken log2 fold change” value was -0.683.

On to RRIRIRPPRLPRPRPRPKRLPRP, for which the “shrunken log2 fold change” value stood at 0.181.

As to RRIRQRPPRLPRPRPRPISCPRP, the “shrunken log2 fold change” value is -0.00146.

For RRIRIRPPRLPRPRPRPDINPRP, the “shrunken log2 fold change” value was -0.0484.

Turning to RRIRHRPPRLPRPRPRPGWGPRP, the “shrunken log2 fold change” value was found to be 0.0673.

Regarding RRIRCRPPRLPRPRPRPYKNPRP, the “shrunken log2 fold change” value is -0.984.

As to RRIRLRPPRLPRPRPRPVVYPRP, the “shrunken log2 fold change” value was -0.058.

Regarding RRIRTRPPRLPRPRPRPVGYPRP, the “shrunken log2 fold change” value is 0.35.

For RRIRFRPPRLPRPRPRPHHIPRP, the “shrunken log2 fold change” value was -0.822.

With RRIRQRPPRLPRPRPRPMQRPRP, the “shrunken log2 fold change” value came out at 0.416.

As for RRIRARPPRLPRPRPRPCEKPRP, the “shrunken log2 fold change” value is 0.0244.

On to RRIRDRPPRLPRPRPRPTIIPRP, for which the “shrunken log2 fold change” value is -0.127.

Consider RRIRGRPPRLPRPRPRPGLYPRP, for which the “shrunken log2 fold change” value amounted to 0.341.

For RRIRIRPPRLPRPRPRPQTVPRP, the “shrunken log2 fold change” value is -0.271.

RRIRTRPPRLPRPRPRPFEQPRP: the “shrunken log2 fold change” value was -0.225.

For RRIRYRPPRLPRPRPRPCVVPRP, the “shrunken log2 fold change” value is -0.0208.

In the case of RRIRKRPPRLPRPRPRPQSGPRP, the “shrunken log2 fold change” value was 0.149.

As for RRIRGRPPRLPRPRPRPQTDPRP, the “shrunken log2 fold change” value is 0.381.

As to RRIRERPPRLPRPRPRPGRIPRP, the “shrunken log2 fold change” value is -0.0858.

Consider RRIRVRPPRLPRPRPRPHRVPRP, for which the “shrunken log2 fold change” value is 0.133.

Take RRIRDRPPRLPRPRPRPLNIPRP: the “shrunken log2 fold change” value is -0.161.

With RRIRMRPPRLPRPRPRPYSYPRP, the “shrunken log2 fold change” value amounted to 0.0871.

Turning to RRIRSRPPRLPRPRPRPAGYPRP, the “shrunken log2 fold change” value stood at 0.0337.

Take RRIRYRPPRLPRPRPRPWVWPRP: the “shrunken log2 fold change” value is -0.111.

Take RRIRSRPPRLPRPRPRPLWQPRP: the “shrunken log2 fold change” value was found to be 0.311.

Turning to RRIRLRPPRLPRPRPRPINEPRP, the “shrunken log2 fold change” value is -0.0016.

Consider RRIRERPPRLPRPRPRPFFWPRP, for which the “shrunken log2 fold change” value worked out at 0.138.

RRIRDRPPRLPRPRPRPMGCPRP: the “shrunken log2 fold change” value is -0.000921.

On to RRIRYRPPRLPRPRPRPVMNPRP, for which the “shrunken log2 fold change” value is -0.115.

In the case of RRIRARPPRLPRPRPRPPMNPRP, the “shrunken log2 fold change” value turned out to be 0.134.

RRIRRRPPRLPRPRPRPVDRPRP: the “shrunken log2 fold change” value worked out at 0.0916.

As for RRIRHRPPRLPRPRPRPAPGPRP, the “shrunken log2 fold change” value amounted to 0.536.

RRIRRRPPRLPRPRPRPQNSPRP: the “shrunken log2 fold change” value was -0.266.

For RRIRARPPRLPRPRPRPWTYPRP, the “shrunken log2 fold change” value turned out to be 0.0209.

Regarding RRIRVRPPRLPRPRPRPAVLPRP, the “shrunken log2 fold change” value was determined as 1.75.

With RRIRWRPPRLPRPRPRPTLVPRP, the “shrunken log2 fold change” value was -0.212.

Turning to RRIRIRPPRLPRPRPRPQPYPRP, the “shrunken log2 fold change” value was -0.84.

In the case of RRIRDRPPRLPRPRPRPIWIPRP, the “shrunken log2 fold change” value turned out to be 0.0877.

Consider RRIRTRPPRLPRPRPRPNISPRP, for which the “shrunken log2 fold change” value was -0.293.

Consider RRIRRRPPRLPRPRPRPHTYPRP, for which the “shrunken log2 fold change” value worked out at 0.573.

As to RRIRSRPPRLPRPRPRPYEDPRP, the “shrunken log2 fold change” value was -0.129.

Turning to RRIRLRPPRLPRPRPRPQMIPRP, the “shrunken log2 fold change” value was -0.173.

Take RRIRGRPPRLPRPRPRPQGEPRP: the “shrunken log2 fold change” value is 0.327.

For RRIRKRPPRLPRPRPRPDVRPRP, the “shrunken log2 fold change” value was determined as 0.0826.

With RRIRIRPPRLPRPRPRPLESPRP, the “shrunken log2 fold change” value came out at 0.0516.

With RRIRSRPPRLPRPRPRPGDCPRP, the “shrunken log2 fold change” value turned out to be 0.0299.

In the case of RRIRLRPPRLPRPRPRPHQYPRP, the “shrunken log2 fold change” value is -0.297.

On to RRIRIRPPRLPRPRPRPHTNPRP, for which the “shrunken log2 fold change” value was -0.906.

Consider RRIRLRPPRLPRPRPRPGIDPRP, for which the “shrunken log2 fold change” value was -0.0208.

As to RRIRGRPPRLPRPRPRPVKTPRP, the “shrunken log2 fold change” value turned out to be 0.0324.

Turning to RRIRDRPPRLPRPRPRPSYTPRP, the “shrunken log2 fold change” value was -0.302.

In the case of RRIRTRPPRLPRPRPRPWPQPRP, the “shrunken log2 fold change” value is 0.323.

Consider RRIRIRPPRLPRPRPRPHVAPRP, for which the “shrunken log2 fold change” value is -0.189.

In the case of RRIRLRPPRLPRPRPRPVMHPRP, the “shrunken log2 fold change” value is -0.16.

In the case of RRIRLRPPRLPRPRPRPQTYPRP, the “shrunken log2 fold change” value is -0.371.

Take RRIRHRPPRLPRPRPRPSMAPRP: the “shrunken log2 fold change” value is 0.231.

Take RRIRHRPPRLPRPRPRPNFPPRP: the “shrunken log2 fold change” value was -0.189.

With RRIRRRPPRLPRPRPRPVPKPRP, the “shrunken log2 fold change” value stood at 0.234.

As for RRIRRRPPRLPRPRPRPCMVPRP, the “shrunken log2 fold change” value was 0.106.

On to RRIRARPPRLPRPRPRPFKLPRP, for which the “shrunken log2 fold change” value is -0.39.

In the case of RRIRYRPPRLPRPRPRPHLDPRP, the “shrunken log2 fold change” value was -0.185.

Regarding RRIRVRPPRLPRPRPRPMRNPRP, the “shrunken log2 fold change” value is -0.0233.

For RRIRGRPPRLPRPRPRPMWFPRP, the “shrunken log2 fold change” value was determined as 0.185.

Consider RRIRWRPPRLPRPRPRPFRPPRP, for which the “shrunken log2 fold change” value is -0.165.

RRIRMRPPRLPRPRPRPWWEPRP: the “shrunken log2 fold change” value was -0.425.
